The chains are these.
B4: Harmonin-a PDZ2-end (domain or fragment, human, UniProt Q9Y6N9-1 194-552, looked up)
chain: GVRGSLGSPGNRENKEKKVFISLVGSRGLGCSISSGPIQKPGIFISHVKPGSLSAEVGLEIGDQIVEVNGVDFSNLDHKEAVNVLKSSRSLTISIVAAAGRELFMTDRERLAEARQRELQRQELLMQKRLAMESNKILQEQQEMERQRRKEIAQKAAEENERYRKEMEQIVEEEEKFKKQWEEDWGSKEQLLLPKTITAEVHPVPLRKPKYDQGVEPELEPADDLDGGTEEQGEQDFRKYEEGFDPYSMFTPEQIMGKDVRLLRIKKEGSLDLALEGGVDSPIGKVVVSAVYERGAAERHGGIVKGDEIMAINGKIVTDYTLAEAEAALQKAWNQGGDWIDLVVAVCPPKEYDDELTFF
notes: Harmonin-a1 (USH1C), human, residues 194-552 of UniProt Q9Y6N9-1; also called PDZ2-end (isoA); source: E. coli BL21 (DE3) Rosetta, purified (Glutathione Sepharose 4B, size-exclusion chromatography)

What all share (settings): both partners purified
One experiment concerns the target T1, Myosin 7a MF2 (human, UniProt Q13402-1 1702-2215).
T1 construct: Myosin 7a, human, C-terminal MyTH4-FERM domain (MF2), residues 1702-2215 of UniProt Q13402-1; Thrombin site of the vector replaced by an SSG linker; also called M7a MF2; Myo7a MF2; source: E. coli (BL21-AI, BL21 (DE3) Rosetta or BL21-Gold (DE3)), purified (Histrap, CaptoQ, gel filtration)
T1 sequence (looked up): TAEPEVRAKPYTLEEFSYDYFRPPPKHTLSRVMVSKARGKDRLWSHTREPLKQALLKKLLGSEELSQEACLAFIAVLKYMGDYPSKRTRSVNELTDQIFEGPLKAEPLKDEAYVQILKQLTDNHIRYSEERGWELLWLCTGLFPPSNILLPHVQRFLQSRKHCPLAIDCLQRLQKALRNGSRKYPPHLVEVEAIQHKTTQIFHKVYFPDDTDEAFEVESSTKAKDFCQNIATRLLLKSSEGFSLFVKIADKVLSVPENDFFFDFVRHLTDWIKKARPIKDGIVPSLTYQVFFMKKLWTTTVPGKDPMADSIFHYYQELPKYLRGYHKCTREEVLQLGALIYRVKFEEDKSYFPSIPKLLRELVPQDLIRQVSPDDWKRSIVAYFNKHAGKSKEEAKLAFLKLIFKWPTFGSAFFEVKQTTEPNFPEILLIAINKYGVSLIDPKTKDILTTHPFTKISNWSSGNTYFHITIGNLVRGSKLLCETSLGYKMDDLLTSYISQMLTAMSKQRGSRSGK
The experiment in a line: ITC; Microcal iTC200, 10 °C; 20 mM HEPES pH 7.0, 100 mM NaCl, 0.5 mM TCEP, 1 mM EGTA; single binding site model; GST removed from harmonin. (In general: In ITC the heat of successive injections is recorded.)

In the next experiment the target is T2, Myosin 7b MF2 (human, UniProt Q6PIF6 1605-2116).
T2 construct: also called M7b MF2; Myo7b MF2; source: E. coli (BL21-AI, BL21 (DE3) Rosetta or BL21-Gold (DE3)), purified (Histrap, CaptoQ, gel filtration)
T2 sequence (looked up): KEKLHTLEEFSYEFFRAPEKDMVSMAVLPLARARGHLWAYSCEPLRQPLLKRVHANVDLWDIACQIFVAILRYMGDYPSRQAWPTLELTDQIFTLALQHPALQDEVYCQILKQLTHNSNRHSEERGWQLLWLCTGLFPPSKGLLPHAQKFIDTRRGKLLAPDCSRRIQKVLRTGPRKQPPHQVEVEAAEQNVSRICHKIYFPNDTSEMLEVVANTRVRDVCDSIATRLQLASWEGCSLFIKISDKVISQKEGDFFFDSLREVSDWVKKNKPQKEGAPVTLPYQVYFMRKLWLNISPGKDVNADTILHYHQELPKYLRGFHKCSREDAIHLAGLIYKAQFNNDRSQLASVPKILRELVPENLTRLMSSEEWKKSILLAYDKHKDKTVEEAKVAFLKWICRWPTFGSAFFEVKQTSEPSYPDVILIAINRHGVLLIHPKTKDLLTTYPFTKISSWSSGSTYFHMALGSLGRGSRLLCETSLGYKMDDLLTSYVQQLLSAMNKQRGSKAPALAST
The experiment is described as above.

Experiment [1] deals with T3, Harmonin NPDZ1 (GST removed, as used in ITC) (human, UniProt Q9Y6N9-1 1-197).
T3 construct: Harmonin-a1 (USH1C), human, residues 1-197 of UniProt Q9Y6N9-1; not shown: GST, N-terminal, cleaved
T3 sequence (looked up): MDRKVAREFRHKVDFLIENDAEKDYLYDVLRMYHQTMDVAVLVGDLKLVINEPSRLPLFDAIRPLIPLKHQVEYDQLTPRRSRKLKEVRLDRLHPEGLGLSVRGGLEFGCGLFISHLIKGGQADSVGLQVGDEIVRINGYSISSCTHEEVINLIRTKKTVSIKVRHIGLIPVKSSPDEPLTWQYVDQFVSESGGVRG
Described as above.

In experiment [2] the target is T4, YFP-Myosin 7b MF2 (human, UniProt Q6PIF6 1605-2116).
T4 construct: Myosin 7b, human, MF2, residues 1605-2116 of UniProt Q6PIF6; pET14-YFP vector; also called ^YFPM7b MF2; source: E. coli (BL21-AI, BL21 (DE3) Rosetta or BL21-Gold (DE3)), purified (Histrap, CaptoQ, gel filtration)
T4 sequence (looked up): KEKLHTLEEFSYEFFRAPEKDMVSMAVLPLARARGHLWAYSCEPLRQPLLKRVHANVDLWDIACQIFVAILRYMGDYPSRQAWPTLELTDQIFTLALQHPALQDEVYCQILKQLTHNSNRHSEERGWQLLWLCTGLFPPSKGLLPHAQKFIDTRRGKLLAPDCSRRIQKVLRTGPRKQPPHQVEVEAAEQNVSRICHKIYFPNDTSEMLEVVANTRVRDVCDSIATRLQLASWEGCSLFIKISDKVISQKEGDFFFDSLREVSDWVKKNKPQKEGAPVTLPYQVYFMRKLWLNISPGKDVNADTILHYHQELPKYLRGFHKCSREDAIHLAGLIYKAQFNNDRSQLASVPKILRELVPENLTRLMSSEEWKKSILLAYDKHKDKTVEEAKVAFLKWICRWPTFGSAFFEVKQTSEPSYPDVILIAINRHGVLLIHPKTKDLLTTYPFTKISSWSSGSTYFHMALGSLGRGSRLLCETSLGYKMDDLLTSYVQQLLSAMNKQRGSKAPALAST
The experiment in a line: MST; YFP-fused partner constant at 100 nM, non-fluorescent protein titrated (16 two-fold dilutions); 20 mM Hepes pH 7.0, 100 mM NaCl, 1 mM EGTA, 0.5 mM TCEP, 0.05% Tween 20; Monolith NT.115.

Experiment [3] concerns the target T4, YFP-Myosin 7b MF2. Described as above. The source holds these as a separate data set.
The target in the experiment “Harmonin-a PDZ2-end” is B4. The description is as above.
The target in another experiment is T5, YFP-Myosin 7a MF2 (human, UniProt Q13402-1 1702-2215).
T5 construct: Myosin 7a, human, MF2, residues 1702-2215 of UniProt Q13402-1; pET14-YFP vector; also called ^YFPM7a MF2; source: E. coli (BL21-AI, BL21 (DE3) Rosetta or BL21-Gold (DE3)), purified (Histrap, CaptoQ, gel filtration)
T5 sequence (looked up): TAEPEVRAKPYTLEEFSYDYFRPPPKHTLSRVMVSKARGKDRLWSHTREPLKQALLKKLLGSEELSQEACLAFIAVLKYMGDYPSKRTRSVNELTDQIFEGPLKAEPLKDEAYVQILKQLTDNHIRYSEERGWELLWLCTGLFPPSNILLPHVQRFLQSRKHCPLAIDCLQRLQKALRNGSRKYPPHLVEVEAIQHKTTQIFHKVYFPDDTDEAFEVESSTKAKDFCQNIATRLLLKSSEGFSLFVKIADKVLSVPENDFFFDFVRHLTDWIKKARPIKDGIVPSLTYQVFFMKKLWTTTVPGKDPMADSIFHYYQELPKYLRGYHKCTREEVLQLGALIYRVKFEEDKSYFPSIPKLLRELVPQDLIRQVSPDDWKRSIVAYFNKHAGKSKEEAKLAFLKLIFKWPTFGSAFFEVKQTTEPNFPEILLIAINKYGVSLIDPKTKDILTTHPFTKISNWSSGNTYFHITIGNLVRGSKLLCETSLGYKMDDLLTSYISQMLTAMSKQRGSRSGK
Described as above.

For the next experiment, the target named is T6, YFP-FL-harmonin-ΔCter (human, UniProt Q9Y6N9-1 1-542).
T6 construct: Harmonin-a1 (USH1C), human, residues 1-542 of UniProt Q9Y6N9-1; also called ^YFPFL ΔCter; source: E. coli BL21 (DE3) Rosetta, purified (Glutathione Sepharose 4B, size-exclusion chromatography)
T6 sequence (looked up): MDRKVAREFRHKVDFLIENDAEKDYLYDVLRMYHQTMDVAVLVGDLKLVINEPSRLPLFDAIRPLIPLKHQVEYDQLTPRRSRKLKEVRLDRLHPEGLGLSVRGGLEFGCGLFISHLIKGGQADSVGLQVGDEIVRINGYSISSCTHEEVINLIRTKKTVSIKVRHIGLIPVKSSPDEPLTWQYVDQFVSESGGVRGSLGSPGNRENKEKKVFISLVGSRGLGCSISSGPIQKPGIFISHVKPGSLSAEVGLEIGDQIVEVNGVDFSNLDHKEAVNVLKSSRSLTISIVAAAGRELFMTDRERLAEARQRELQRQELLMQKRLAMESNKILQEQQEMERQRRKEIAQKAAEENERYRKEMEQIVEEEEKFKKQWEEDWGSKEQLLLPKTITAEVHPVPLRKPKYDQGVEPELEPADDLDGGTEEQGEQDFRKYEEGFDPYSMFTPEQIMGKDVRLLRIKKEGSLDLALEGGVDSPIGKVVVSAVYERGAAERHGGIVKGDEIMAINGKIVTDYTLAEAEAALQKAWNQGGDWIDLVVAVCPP
Put plainly: MST; as a1 but 150 mM NaCl (for FL-Harmonin-a); YFP-fused partner constant at 100 nM, non-fluorescent protein titrated.

B1: Harmonin-a PDZ3c (GST removed, as used in ITC and crystallisation) (domain or fragment, human, UniProt Q9Y6N9-1 428-552, looked up)
chain: QDFRKYEEGFDPYSMFTPEQIMGKDVRLLRIKKEGSLDLALEGGVDSPIGKVVVSAVYERGAAERHGGIVKGDEIMAINGKIVTDYTLAEAEAALQKAWNQGGDWIDLVVAVCPPKEYDDELTFF
notes: Harmonin-a1 (USH1C), human, residues 428-552 of UniProt Q9Y6N9-1; also called PDZ3c (isoA); HarA PDZ3c; not shown: GST, N-terminal, cleaved
Broadly, the Kd is the equilibrium constant for the complex coming apart. Low values mean a tighter complex, high ones a looser complex. Take B1: the values for the Kd (with Myosin 7a MF2; with Myosin 7b MF2; in experiment [1]) were 1 µM, 1.4 ± 0.6 µM and 10 ± 3 µM, respectively.

B2: Harmonin-a PDZ3c F551V-F552V (domain or fragment, human, UniProt Q9Y6N9-1 428-552, looked up)
chain: QDFRKYEEGFDPYSMFTPEQIMGKDVRLLRIKKEGSLDLALEGGVDSPIGKVVVSAVYERGAAERHGGIVKGDEIMAINGKIVTDYTLAEAEAALQKAWNQGGDWIDLVVAVCPPKEYDDELTVV
notes: Harmonin-a1 (USH1C), human, residues 428-552 of UniProt Q9Y6N9-1; also called PDZ3c (isoA) F551V-F552V; source: E. coli BL21 (DE3) Rosetta, purified similarly as wild type
Regarding B2, the equilibrium dissociation constant (Kd) was greater than 100 µM with YFP-Myosin 7b MF2 [2] and 68 µM with YFP-Myosin 7b MF2 [3].

B3: YFP-Harmonin NPDZ1 (domain or fragment, human, UniProt Q9Y6N9-1 1-197, looked up)
chain: MDRKVAREFRHKVDFLIENDAEKDYLYDVLRMYHQTMDVAVLVGDLKLVINEPSRLPLFDAIRPLIPLKHQVEYDQLTPRRSRKLKEVRLDRLHPEGLGLSVRGGLEFGCGLFISHLIKGGQADSVGLQVGDEIVRINGYSISSCTHEEVINLIRTKKTVSIKVRHIGLIPVKSSPDEPLTWQYVDQFVSESGGVRG
notes: Harmonin-a1 (USH1C), human, residues 1-197 of UniProt Q9Y6N9-1; also called ^YFPNPDZ1; source: E. coli BL21 (DE3) Rosetta, purified (Glutathione Sepharose 4B, size-exclusion chromatography)
B3 returned a Kd with Harmonin-a PDZ2-end of 4.2 µM.

For B4, the Kd in the experiment with YFP-Myosin 7b MF2 [2] came out at 2.79 ± 0.79 µM; with YFP-Myosin 7a MF2, 1.88 µM; with YFP-FL-harmonin-ΔCter, 2 µM.

(Values after article PMC5493754, “Myosin 7 and its adaptors link cadherins to actin” (Nature Communications, 2017).)
